assay: yeast display, Sf9 membrane polyspecificity reagent, FACS + sequencing; frameworks hold sequencing errors
Method in brief: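 Genes from sorted yeast were amplified by colony PCR, read by MiSeq 2 × 250 sequencing and filtered on CDR length. These cells carried a synthetic nanobody library in Saccharomyces cerevisiae BJ5465 and were sorted by FACS into low and high (top ~1%) gates on anti-HA and streptavidin fluorescence. Polyreactivity is labelled according to the gate of origin.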

| Sequence | polyreactivity (PSR sort gate) |
| --- | --- |
| QVQLVESGGGLVQAGGSLRLSCAASGSTFVYYAMGWYRQAPGKERELVAAISWSGTRTYYADSVKGRFTISRDNAKNTVYLQMNSLKPEDTAVYYCATRKQSRSVGYNYWGQGTQVTVSS | high polyreactivity |
| QVQLVESGGGLVQAGGSLRLSCAASGSTFVYYAMGWYRQAPGKERELVAAITASGGGTYYADSVKGRFTISRDNAKNTVYLQMNSLKPEDTAVYYCNRGYDYWGQGTQVTVSS | low polyreactivity |
| QVQLVESGGGLVQAGGSLRLSCAASGSTFVYYAMGWYRQAPGKERELVAAITSRGGSTYYADSVKGRFTISRDNAKNTVYLQMNSLKPEDTAVYYCAKYAYSFPYNYWGQGTQVTVSS | high polyreactivity |
| QVQLVESGGGLVQAGGSLRLSCAASGSTFVYYAMGWYRQAPGKERELVAAMTSSGGRTYYADSVKGRFTISRDNAKNTVYLQMNSLKPEDTAVYYCATPSTRLYSVTSQGYGYWGQGTQVTVSS | high polyreactivity |
| QVQLVESGGGLVQAGGSLRLSCAASGSTFVYYAMGWYRQAPGKERELVADISWSGGDTYYADSVKGRFTISRDNAKNTVYLQMNSLKPEDTAVYYCAAEWSTPSYVGFADGFEYWGQGTQVTVSS | low polyreactivity |
| QVQLVESGGGLVQAGGSLRLSCAASGSTFVYYAMGWYRQAPGKERELVASITGGGRTNYADSVKGRFTISRENAKNNVYLQMNSLKPEDTAVYYCAKDHASYYYWPSVLPYDHWGQGSQVTVSS | low polyreactivity |
| QVQLVESGGGLVQAGGSLRLSCAASGSTFVYYAMGWYSQAPGKERELVAAITRSGGRTYYADSVKGRFTNSRDNAKNRVYLQMNSLKPEDTAVYYCAADDYTGYGYWGQGTQVTVSS | high polyreactivity |
| QVQLVESGGGLVQAGGSLRLSCAASGSTFVYYDMGWYRQAPGKERELVAAITNGGNTYYADSVKGRFTISRDNAKNTVYLQMNSLKPEDTAVYYCAKLYTDAIVWSAYDYWGQGTQVTVSS | low polyreactivity |
| QVQLVESGGGLVQAGGSLRLSCAASGSTFWAYVMGWYRQAPGKERELVAAISSGGTTNYADSVKGRFTISRDNAKNTVYLQMNSLKPEDTAVYYCAAEYPSVYYERFDYWGQGTQVTVSS | low polyreactivity |
| QVQLVESGGGLVQAGGSLRLSCAASGSTFWEKAIGWSRQAPGKEMELAAAISWGGASTYYADSVKGRFTISRDNAKNTVYLQMNSLKPEDTAVYYCAADQTSTQFLSSYGGYNYWGQGTQVTVSS | low polyreactivity |
| QVQLVESGGGLVQAGGSLRLSCAASGSTFWFNAMGWYRQAPGKERELVAAIDSGGGTYYADSVKGRFTISRDNAKNTAYLQMNSLKPEDTAVFYCNASHPPKAELDYWGQGTQVTVSS | low polyreactivity |
| QVQLVESGGGLVQAGGSLRLSCAASGSTFWFYAMGWYRQAPGKERELVAVISNSGSTYYADSVKGRFTISRDNAKNTVYLQMNSLKPEDTAVYYCNRYYPVPYDYWGQGTQVTVSS | low polyreactivity |
| QVQLVESGGGLVQAGGSLRLSCAASGSTFWHYAMGWYRQAPGKERELVAAISSGGGRTYYADSVKGRFTISRDNAKNTVYLQMNSLQPEDTAVYYCAARYYFYDYWGQGTQVTLSS | high polyreactivity |
| QVQLVESGGGLVQAGGSLRLSCAASGSTFWKYVKGWYRQAPGKERELVAAISNSGVNTYYADSVKGRFTISRDNAKNTVYLQMNSLKTEDTAVYYCAADRCGYEYWGQGTQVTVSS | high polyreactivity |
| QVQLVESGGGLVQAGGSLRLSCAASGSTFWLYTMGCYRQAPVKERELVAAISTRGGSTYYADSVKGRFTISRDNAKNTVYVQMHSLKPEDTAVYYCAAYPTYGEYDYWGQGSQVTVSS | high polyreactivity |
| QVQLVESGGGLVQAGGSLRLSCAASGSTFWLYVMGWYRQAPGKERELVAAISSGGITKYADSVKGRFTISRDNAKNTVYLQMNSLKPEDTAVYYCAVGVLGYRRVTGYYWGQGTQVTVTS | high polyreactivity |
| QVQLVESGGGLVQAGGSLRLSCAASGSTFWNAMGWYRQAPGKERELVAAIRLSGGSTYYADSVKGRFTISRDNAKNTVYLQMNRLKPEDTAVYYCATDLVFVSSDLQETAYYWGQGTQVTVSS | low polyreactivity |
| QVQLVESGGGLVQAGGSLRLSCAASGSTFWNYAMGWYRQAPGKERELVAAITRGSSTNYADSVKGRFTISRDNAKNTVYLQMNSLKPEDTAVYYCANPVGRWSAFYYWGQGTQVTVSS | high polyreactivity |
| QVQLVESGGGLVQAGGSLRLSCAASGSTFWNYAMGWYRQAPGKERELVASIDSSDGRTYYADSVKGRFTSSRDNAKNTVFLQMTRQKPEDTAVDYCAKDAYAVELRPYSKLSSRADGYWGHGTQVTVSS | low polyreactivity |
| QVQLVESGGGLVQAGGSLRLSCAASGSTFWPYAMGRYRPAPGKERELGATIRGGGTSTYYADSVKGRVTISRDNAKNTVYLQMNSLKPEDTAGYYCAARGFYTGSYPGYYYWGQGTQVTVSS | high polyreactivity |
| QVQLVESGGGLVQAGGSLRLSCAASGSTFWPYAMGWYIQAPGKERELVAAITSSGGSTYYADSVKGRFTISRDNAKNTVYLQMNSLKAEDTAVYYCAADWSNLGAYDYWGQGTQVTVSS | low polyreactivity |

| Sequence | polyreactivity (PSR sort gate) |
| --- | --- |
| QVQLVESGGGLVQAGGSLRLSCAASGSTFWPYAMGWYRQAPGKERELVAAITTRDGSTYYADSVKGRFTISRDNAKNTVYLQMNSLKPEDTAVYYCAAKSSRYDYYYWGQGTQVTVSS | high polyreactivity |
| QVQLVESGGGLVQAGGSLRLSCAASGSTFWPYAMGWYRQAPVKERELVADISRRCGSTYYADSVKGRFTISRDNAKNTVYLQMNSLKPEDTAVYYCAKYPSAYVDSDVTYDMAYWGQGTQVTVSS | low polyreactivity |
| QVQLVESGGGLVQAGGSLRLSCAASGSTFWPYTMGWYRQAPGKERELVAAITLRGGTTYYADSVKGRFTISRDNEKNTVYLQMNSLKPEDTAVYYCAADVAYVEYDYWGQGTQVTVSS | low polyreactivity |
| QVQLVESGGGLVQAGGSLRLSCAASGSTFWQYALGWYRQAPGKEREFVAAISSRGGSTYYADSVKGRFTISRDNAKNTVYLQMNSLKPEDTAVYYCAAQNYFAFIRTYRYVHRPTYYYWGQGTQVTVSS | high polyreactivity |
| QVQLVESGGGLVQAGGSLRLSCAASGSTFWRNAMGWYRQAPGKERELVAAISRGGSTNYADSVKGRFTISRDNAKNTVYLQMNSLKPEDTAVYYCAARYYYRYNYWGQGTQVTVSS | high polyreactivity |
| QVQLVESGGGLVQAGGSLRLSCAASGSTFWRYAMGWYRQAPGKERELVAAISRSGGSTYYADSVKGRFTISRDNAKNTVYLQMNSLKPEDTAVYYCAAQYGGKYKLYSDSYAMDYWGQGTQVTVSS | high polyreactivity |
| QVQLVESGGGLVQAGGSLRLSCAASGSTFWSNAMGWYRQAPGKERELVAAISISDGNTYYADSVKGRFTISRDNAKNTVYLQMNSLKPEDTAVYYCATVGSEDGDPGFDYWGQGTQVTVSS | low polyreactivity |
| QVQLVESGGGLVQAGGSLRLSCAASGSTFWSNAMGWYRQAPGKERELVAAITRGGSTNYADSVKGRFTISRDNAKNTVYLQMNSLKPEDTAVYFCAATYVPYGRRLYAYYYWGQGTQVTVSS | high polyreactivity |
| QVQLVESGGGLVQAGGSLRLSCAASGSTFWSNTMGWYRQAPGKERELVATITDSGGITYYADSVKGRFTISRDNAKNTVYLQMNSLKPEDTAVYYCNVRKTWYGYSVTGRYDYWGQGTQVTVSS | low polyreactivity |
| QVQLVESGGGLVQAGGSLRLSCAASGSTFWSNVMGWYRQAPGKERELVSAISYGGVTTSYADSVKGRFTISRDNAKNTVYLQMNSLKPEDTAVYYCAAYNGAHSHFGYWGQGTQVTVSS | low polyreactivity |
| QVQLVESGGGLVQAGGSLRLSCAASGSTFWSYTMGGYRQAPGKERELVAAISRSGGSTYYADSVKGRFTISRDNAKNTVYLQKNSLKPEDTAVYYCAASDRYGSRYYYWGQGTQVTVSS | high polyreactivity |
| QVQLVESGGGLVQAGGSLRLSCAASGSTFWVNAMGWYRQAPGKERELVAAITYSGGSTHYADSVKGRFTISRDNAKNTVYLQMNSLKPEDTAVYYCNAEHWADYDYWGQGTQVTVSS | low polyreactivity |
| QVQLVESGGGLVQAGGSLRLSCAASGSTFWVYDMGWYRQAPGKERELVAAISRRGGRTYYADSVKGRFTISRDNAKNTVYLQMNSLKPEDTAVYYCNRRYTQPDTRQWYDYWGQGTQVTVSS | low polyreactivity |
| QVQLVESGGGLVQAGGSLRLSCAASGSTFWVYTKGWYRQAPGKERELVAAITGSTGNTYYADSVKGRFTISRDNPKNTVYFQMNSLKPEDTAVYYCSADSYWSYRYPMGYDNWGQGSQVTVSS | low polyreactivity |
| QVQLVESGGGLVQAGGSLRLSCAASGSTFWWYAMGWYRQAPGKEREFVAAITSTGGSTYYADSVKGRFTISHDNAKNTVYLQMNSLKPEDTAVYYCAVRLYLEMDYWGQGTQVTVSS | high polyreactivity |
| QVQLVESGGGLVQAGGSLRLSCAASGSTFWYAMGWYRQAPGKERELVAAITARGGRTYYADSVKGRFTISRDNAKNTVYLQMNSLKPEDTAVYYCARLSYAGGQWIIGKYDYWGQGTQVTVSS | high polyreactivity |
| QVQLVESGGGLVQAGGSLRLSCAASGSTFWYNTMGWYRQAPGKERELVAAISWSGGSTYADSVKGRFTISRDNAKNTVYLQMNSLKPEDTAVYYCNADDYYRYDYWGLGTQVTVSS | low polyreactivity |
| QVQLVESGGGLVQAGGSLRLSCAASGSTFWYYAMGWSRQAPGKERELVAAIRRGGSTYYADSVKGRFTISRDNAKNTVYLQMNSLKPVDTAVYYCAAERPYKTFGYGYWGQGTQVTVSS | high polyreactivity |
| QVQLVESGGGLVQAGGSLRLSCAASGSTFWYYAMGWYRQAPGKERELVAAITSSGSTYYADSVKGRFTISRDNAKNTVYLQMYSLKPEDTAVYYCAAEQWYGYASYDYWGQGTQVTVSS | high polyreactivity |
| QVQLVESGGGLVQAGGSLRLSCAASGSTFWYYAMGWYRQAPGKERELVAAITSVDSTYYADSVKGRFTISRDNANNTVYLQMNSLKPEDTAVYYCAADLPWEDGYYFYSGYTEYDYWGQGTQVTVSS | low polyreactivity |
